± gives the standard deviation of the averaged measurements.
Test system: ATP
Test: switch fluorescence ratio, 500 uM ATP over buffer (Cy3 cluster intensity, sum of 5 cycles each) (fold (ratio)); higher = stronger signal-on switching upon ATP binding; sequences stand for … in TCGTCGGCAGCGTCAGATGTGTATAAGAGACAGTTTTTTTTTTTTTTTTTTTTTTTTT…TC
Settings: aptamer strand: ATP DNA aptamer (quencher-CACCTGGGGGAGTATTGCGGAGGAAGG + anchor), 100 nM annealed; ATP concentration: 500 uM
Method in brief: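 Five buffer/ATP imaging cycles were run on Cy3-labelled switching-strand clusters on a modified Illumina MiSeq flow-cell, with NaOH stripping and re-annealing between cycles. In each cycle, clusters annealed to 100 nM quencher-labelled ATP aptamer were imaged in selection buffer, then after 15 min with 500 uM ATP at 22 °C. Per cluster, the fluorescence ratio is summed target-cycle over summed buffer-cycle Cy3 intensity, averaged per switch-domain sequence. Only clusters within 100-1000 RFU were kept.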
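Further: ATP exposure 15 min at 22 °C before imaging.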

Sequence	switch fluorescence ratio
GGTCGTTGGT	1.04 ± 0.022
GGTCTACATT	1.01 ± 0.032
GGTCTAGACG	1.01 ± 0.044
GGTCTAGATA	0.99 ± 0.026
GGTCTAGATT	0.988 ± 0.013
GGTCTGGCTT	0.988 ± 0.052
GGTCTGGTGC	1.031 ± 0.0048
GGTCTTAGTT	0.987 ± 0.035
GGTCTTGGGC	1.02 ± 0.026
GGTCTTGTGG	0.993 ± 0.032
GGTCTTTCG	0.9794 ± 0.0025
GGTGAAATGT	0.9561 ± 0.0059
GGTGAAGCTG	1.05 ± 0.14
GGTGAATGCG	0.9779 ± 0.0048
GGTGACGTGG	1.02 ± 0.012
GGTGACTGCT	0.9543 ± 0.0024
GGTGAGAAAT	1.01 ± 0.04
GGTGAGGCTA	1 ± 0.022
GGTGAGGTTG	0.971 ± 0.02
GGTGATACGC	1.001 ± 0.0035
GGTGATATAG	0.984 ± 0.021
GGTGATCGGC	0.986 ± 0.029

Sequence	switch fluorescence ratio
GGTGATGGGC	1.01 ± 0.062
GGTGATGGTG	0.976 ± 0.047
GGTGATGTTG	0.9611 ± 0.0055
GGTGATTATT	1.02 ± 0.029
GGTGCATGGG	1.01 ± 0.034
GGTGCATGGT	1.05 ± 0.011
GGTGCCAAGT	1.004 ± 0.0052
GGTGCCACTT	1.03 ± 0.024
GGTGCCGCGG	1.01 ± 0.023
GGTGCCGTTT	0.998 ± 0.026
GGTGCCTGGG	1 ± 0.0011
GGTGCGCGGA	1.034 ± 0.0064
GGTGCTGGCA	0.956 ± 0.051
GGTGCTTTTG	0.9888 ± 0.0085
GGTGGAATGT	0.983 ± 0.049
GGTGGAGCTA	1.03 ± 0.015
GGTGGATGGC	1 ± 0.013
GGTGGGAGTG	1.37 ± 0.66
GGTGGGGCGC	1.01 ± 0.035
GGTGGGGTCC	0.987 ± 0.011
GGTGGGGTTT	0.999 ± 0.054
GGTGGGTATT	0.966 ± 0.021

Sequence	switch fluorescence ratio
GGTGGGTGCA	0.985 ± 0.036
GGTGGTGGCT	1.04 ± 0.079
GGTGGTGGGT	0.986 ± 0.021
GGTGTAAGAG	0.987 ± 0.031
GGTGTAGCGG	0.982 ± 0.065
GGTGTAGGTG	0.9851 ± 0.0098
GGTGTCATAT	0.984 ± 0.024
GGTGTGAGTG	0.973 ± 0.025
GGTGTGCTGT	0.957 ± 0.031
GGTGTGGAGG	1.021 ± 0.0047
GGTGTGGATC	1.021 ± 0.0029
GGTGTGGCGT	1 ± 0.018
GGTGTGGGGG	1.01 ± 0.04
GGTGTGTCGT	1.02 ± 0.017
GGTGTTAGG	1 ± 0.016
GGTGTTAGTC	1.02 ± 0.036
GGTGTTCACT	0.995 ± 0.019
GGTGTTGGAC	0.997 ± 0.019
GGTGTTGGG	1.01 ± 0.019
GGTGTTTATC	1 ± 0.014
GGTGTTTCGT	0.9735 ± 0.001
GGTGTTTGGG	1 ± 0.039

Sequence	switch fluorescence ratio
GGTGTTTTTT	0.99 ± 0.011
GGTTAAAGCG	1.02 ± 0.013
GGTTAAAGGT	1.02 ± 0.026
GGTTAAGCGG	0.972 ± 0.021
GGTTAAGGCA	1.022 ± 0.0034
GGTTAAGGGT	0.9892 ± 0.0056
GGTTAATTGT	0.993 ± 0.033
GGTTACGAAG	1.01 ± 0.044
GGTTACTGAG	0.98 ± 0.018
GGTTAGAACG	1.02 ± 0.06
GGTTAGGAGT	0.99 ± 0.0081
GGTTAGGCGC	0.993 ± 0.012
GGTTAGGGG	0.99 ± 0.028
GGTTAGTTGG	0.978 ± 0.027
GGTTATAATG	1.02 ± 0.012
GGTTATAGAC	0.994 ± 0.012
GGTTATCTTT	0.982 ± 0.047
GGTTATGGG	0.993 ± 0.038
GGTTATTTGA	0.974 ± 0.028
